B1: GST-hnRNPH2 PY-NLS WT (aa 169–225) [human] / karyopherin β2 (Kapβ2) [not stated] (parent complex)
chain 1: LKKHKERIGHRYIEIFKSSRAEVRTHYDPPRKLMAMQRPGPYDRPGAGRGYNSIGRG
chain 2: MVWDRQTKMEYEWKPDEQGLQQILQLLKESQSPDTTIQRTVQQKLEQLNQYPDFNNYLIFVLTKLKSEDEPTRSLSGLILKNNVKAHFQNFPNGVTDFIKSECLNNIGDSSPLIRATVGILITTIASKGELQNWPDLLPKLCSLLDSEDYNTCEGAFGALQKICEDSAEILDSDVLDRPLNIMIPKFLQFFKHSSPKIRSHAVACVNQFIISRTQALMLHIDSFIENLFALAGDEEPEVRKNVCRALVMLLEVRMDRLLPHMHNIVEYMLQRTQDQDENVALEACEFWLTLAEQPICKDVLVRHLPKLIPVLVNGMKYSDIDIILLKGDVEEDETIPDSEQDIRPRFHRSRTVAQQHDEDGIEEEDDDDDEIDDDDTISDWNLRKCSAAALDVLANVYRDELLPHILPLLKELLFHHEWVVKESGILVLGAIAEGCMQGMIPYLPELIPHLIQCLSDKKALVRSITCWTLSRYAHWVVSQPPDTYLKPLMTELLKRILDSNKRVQEAACSAFATLEEEACTELVPYLAYILDTLVFAFSKYQHKNLLILYDAIGTLADSVGHHLNKPEYIQMLMPPLIQKWNMLKDEDKDLFPLLECLSSVATALQSGFLPYCEPVYQRCVNLVQKTLAQAMLNNAQPDQYEAPDKDFMIVALDLLSGLAEGLGGNIEQLVARSNILTLMYQCMQDKMPEVRQSSFALLGDLTKACFQHVKPCIADFMPILGTNLNPEFISVCNNATWAIGEISIQMGIEMQPYIPMVLHQLVEIINRPNTPKTLLENTAITIGRLGYVCPQEVAPMLQQFIRPWCTSLRNIRDNEEKDSAFRGICTMISVNPSGVIQDFIFFCDAVASWINPKDDLRDMFCKILHGFKNQVGDENWRRFSDQFPLPLKERLAAFYGV
B2: FLAG-hnRNPH2 WT, full length [human] / Kapβ2 in HEK293T cells [human (endogenous in HEK293T)] (parent complex)
chain 1: MMLSTEGREGFVVKVRGLPWSCSADEVMRFFSDCKIQNGTSGIRFIYTREGRPSGEAFVELESEEEVKLALKKDRETMGHRYVEVFKSNSVEMDWVLKHTGPNSPDTANDGFVRLRGLPFGCSKEEIVQFFSGLEIVPNGMTLPVDFQGRSTGEAFVQFASQEIAEKALKKHKERIGHRYIEIFKSSRAEVRTHYDPPRKLMAMQRPGPYDRPGAGRGYNSIGRGAGFERMRRGAYGGGYGGYDDYGGYNDGYGFGSDRFGRDLNYCFSGMSDHRYGDGGSSFQSTTGHCVHMRGLPYRATENDIYNFFSPLNPMRVHIEIGPDGRVTGEADVEFATHEDAVAAMAKDKANMQHRYVELFLNSTAGTSGGAYDHSYVELFLNSTAGASGGAYGSQMMGGMGLSNQSSYGGPASQQLSGGYGGGYGGQSSMSGYDQVLQENSSDYQSNLA
chain 2: B1 chain 2

Variants of: B1
Experiment: GST pulldown, Coomassie Blue band intensity; parent: 86; read off a plot

Variant | response [%]
chain 1 P41L | ~28
chain 1 R38W | ~42

Variants of: B2
Experiment: co-immunoprecipitation (anti-FLAG IP, immunoblot densitometry); HEK293T cells transfected with FLAG-hnRNPH2 constructs; parent: 100; read off a plot

Variant | percent of parent [%]
chain 1 Y210C | ~25
chain 1 P209L | ~20
chain 1 R206W | ~48
chain 1 R206G | ~26
chain 1 R206Q | ~25
